Measured values published in patent US20240301031A1 (JIANGSU HENGRUI PHARMACEUTICALS, published 2024).
Residue numbers refer to the chain shown, from its start. Where two headings read alike, the source gives them in different places. Each block holds one binder with its values, some of them ahead of it.

Legend:
[1] = molecular target: T1, human BAFF (10056-HNCH, Sino biological) (human, UniProt Q9Y275 134-285); test: ELISA, BAFF coated, fusion protein titrated
T1 construct: Bought protein
Procedure: (§1) The binding activity of the antibodies or fusion proteins for BAFF, APRIL, and IL-12/23 p40 was assayed by the ELISA method (coating an antigen protein). The specific procedures were as follows:
(§2) A BAFF (Sino biological, 10056-HNCH), APRIL (R&D Systems, 5860-AP-010/CF), or IL-12/23 p40 (Sino biological, 10052-H08H) protein was diluted to 1 μg/mL with a PBS (BasalMedia, B320) buffer at pH 7.4, and added to a 96-well microplate (Corning, 3590) at 100 μL/well. The plate was incubated at 4° C. overnight. After the liquid was discarded, 300 μL of 5% skim milk (BD, 232100) diluted with PBS was added to each well for blocking, and the plate was incubated at 37° C. for 2 h. After the blocking was completed, the blocking solution was discarded, and the plate was washed 3 times with a PBST buffer (PBS at pH 7.4 containing 0.1% tween-20). 100 μL of test antibody or fusion protein solution diluted in a gradient was added to each well, and the plate was incubated at 37° C. for 1 h. After the incubation was completed, the plate was washed 3 times with PBST. […] The plate was washed 3 times with PBST. 100 μL of TMB chromogenic substrate (KPL, 5120-0077) was added to each well, and the plate was incubated at room temperature for 10-15 min. The reaction was stopped by adding 50 μL of 1 M H₂SO₄ to each well. The plate was read for absorbance values at 450 nm on a microplate reader, the binding curves of the antibodies to an antigen were fitted with software, and the EC₅₀ values were calculated.

[2] = molecular target: T1, human BAFF (10056-HNCH, Sino biological); test: competition ELISA: biotin-labeled BAFF to coated BAFF-R
Procedure: (§3) The blocking activity of the antibodies and the fusion proteins for receptors and ligands such as BAFF/BAFF-R, BAFF/BCMA, BAFF/TACI, APRIL/BCMA, APRIL/TACI, and p40/IL-12R1 was assayed by the ELISA method. The specific procedures were as follows:
(§4) A receptor protein was diluted to 2 μg/mL with PBS at pH 7.4 (BasalMedia, B320) and added to a 96-well microplate (Corning, 3590) at 100 μL/well. The plate was incubated at 4° C. overnight. After the liquid was discarded, 200 μL of 1% Casein blocking solution (Thermo, 37528) was added to each well for blocking, and the plate was incubated at 37° C. for 2 h. After the blocking was completed, the blocking solution was discarded, and the plate was washed 3 times with a PBST buffer (PBS at pH 7.4 containing 0.1% tween-20) for later use. A biotin-labeled ligand protein at a fixed concentration was mixed with the antibody or fusion protein diluted in gradient, pre-incubated at 37° C. for 30 min, and added to a blocked microplate. The plate was incubated at 37° C. for 1.5 h. After the incubation was completed, the plate was washed 3 times with PBST. 100 μL of streptavidin-HRP (Invitrogen, 434323, diluted at a ratio of 1:4000) was added to each well, and the plate was incubated at 37° C. for 1 h. The supernatant was removed, and the plate was washed 3 times with PBST. 100 μL of TMB chromogenic substrate (KPL, 5120-0077) was added to each well, and the plate was incubated at room temperature for 10-15 min. The reaction was stopped by adding 50 μL of 1 M H₂SO₄ to each well. The plate was read for absorbance values at 450 nm on a microplate reader, the curves for the inhibition of the binding of the ligands to the receptors were fitted with software, and the IC₅₀ values were calculated.

[3] = molecular target: BAFF (R&D Systems, 7537-BF) (UniProt Q9Y275 134-285); test: cell-based or functional assay
[4] = molecular target: T2, human APRIL (5860-AP-010/CF, R&D Systems) (human, UniProt O75888 115-250, limits assumed); test: cell-based or functional assay
T2 sequence (looked up): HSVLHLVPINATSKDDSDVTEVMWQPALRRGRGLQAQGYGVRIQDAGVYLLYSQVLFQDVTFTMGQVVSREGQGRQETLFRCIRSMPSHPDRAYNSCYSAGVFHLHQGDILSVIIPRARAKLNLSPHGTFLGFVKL

[5] = molecular target: T1, human BAFF (10056-HNCH, Sino biological); test: competition ELISA: biotin-labeled BAFF to coated BAFF-R; remark: listed apart in the source
Procedure: as §3, §4

[6] = molecular target: T3, BAFF (ACROBiosystems, BAF-H5248) (UniProt Q9Y275 134-285); test: ELISA, fusion protein coated, BAFF titrated, Anti-His-HRP
T3 construct: Bought protein used in the ELISA with coated test sample
Procedure: The binding activity of the TACI fusion proteins for BAFF and APRIL was assayed by the ELISA method (coating a test fusion protein sample). The specific procedures were as follows:
The test sample was diluted to 2 μg/mL with a PBS (BasalMedia, B320) buffer at pH 7.4 and added to a 96-well microplate (Corning, 3590) at 100 μL/well. The plate was incubated at 4° C. overnight. After the liquid was discarded, 300 μL of 5% skim milk (BD, 232100) diluted with PBS was added to each well for blocking, and the plate was incubated at 37° C. for 2 h. After the blocking was completed, the blocking solution was discarded, and the plate was washed 3 times with a PBST buffer (PBS at pH 7.4 containing 0.1% tween-20). 100 μL of BAFF (ACROBiosystems, BAF-H5248) or APRIL (R&D Systems, 5860-AP-010/CF) diluted in a gradient was added to each well, and the plate was incubated at 37° C. for 1 h. After the incubation, the plate was washed 3 times with PBST. When detecting the binding to BAFF, 100 μL of Anti-His-HRP (Sino biological, 105327-MM02T-H, diluted at a ratio of 1:2000) was added to each well; when detecting the binding to APRIL, 100 μL of anti-HA-HRP (Abcam, ab1190, diluted at a ratio of 1:4000) was added to each well. The plate was incubated at 37° C. for 1 h. The plate was washed 3 times with PBST. 100 μL of TMB chromogenic substrate (KPL, 5120-0077) was added to each well, and the plate was incubated at room temperature for 10-15 min. The reaction was stopped by adding 50 μL of 1 M H₂SO₄ to each well. The plate was read for absorbance values at 450 nm on a microplate reader, the binding curves of the antibodies to an antigen were fitted with software, and the EC₅₀ values were calculated.

[7] = molecular target: T1, human BAFF (10056-HNCH, Sino biological); test: ELISA, BAFF coated, fusion protein titrated; remark: listed apart in the source
Procedure: as §1, §2

[8] = molecular target: T1, human BAFF (10056-HNCH, Sino biological); test: competition ELISA: biotin-labeled BAFF to coated BAFF-R; remark: listed apart in the source
Procedure: as §3, §4

[9] = molecular target: T2, human APRIL (5860-AP-010/CF, R&D …); test: SPR (Biacore), sample captured on Protein A, antigen flowed, 1:1 fit
Procedure: A certain amount of test sample was subjected to affinity capture by a biosensor chip Protein A (GE, 29127556), then antigens at a series of concentration gradients were allowed to flow on the surface of the chip. The reaction signals were detected in real time by using Biacore (GE, 8K) to obtain association and dissociation curves. After the dissociation was completed for each cycle, the biochip was washed and regenerated with a 10 mM glycine-hydrochloric acid solution at pH 1.5 (GE, BR-1003-54). The experimental data were fitted using BIAevaluation version 4.1, GE software with a 1:1 model to obtain affinity values. The related antigen proteins used in this assay are as follows: human IL-23 (CT048-H08H, Sino biological), human IL-12 (CT050-H08H, Sino biological), human BAFF (10056-HNCH, Sino biological), human APRIL (5860-AP-010/CF, R&D Systems), cynomolgus monkey p40 (10215-CL, R&D Systems), cynomolgus monkey BAFF (BAF-CM412B, Kactus), cynomolgus monkey APRIL (APR-CM410B, Kactus), mouse BAFF (BAF-M521y, Acro Biosystems), and mouse APRIL (7907-AP/CF, R&D Systems).

[10] = molecular target: T1, human BAFF (10056-HNCH, Sino biological); test: as above

B1: TACI-14 Fc (Fc fusion)
chain: SLSCRKEQGKFYDHLLRDCISCASICGQHPKQCAYFDKTHTCPPCPAPEAEGAPSVFLFPPKPKDTLMISRTPEVTCVVVDVSHEDPEVKFNWYVDGVEVHNAKTKPREEQYNSTYRVVSVLTVLHQDWLNGKEYKCKVSNKALPSSIEKTISKAKGQPREPQVYTLPPSRDELTKNQVSLTCLVKGFYPSDIAVEWESNGQPENNYKTTPPVLDSDGSFFLYSKLTVDKSRWQQGNVFSCSVMHEALHNHYTQKSLSLSPGK
notes: Fused directly to Fc; two identical polypeptides
EC50 [1]: 64.2 nM
IC50 [2]: 780 nM

B4: TACI-12 Fc (Fc fusion)
chain: SLSCRKEQGKFYDHLLRDCISCASICGQHPKQCAYFCEDKTHTCPPCPAPEAEGAPSVFLFPPKPKDTLMISRTPEVTCVVVDVSHEDPEVKFNWYVDGVEVHNAKTKPREEQYNSTYRVVSVLTVLHQDWLNGKEYKCKVSNKALPSSIEKTISKAKGQPREPQVYTLPPSRDELTKNQVSLTCLVKGFYPSDIAVEWESNGQPENNYKTTPPVLDSDGSFFLYSKLTVDKSRWQQGNVFSCSVMHEALHNHYTQKSLSLSPGK
notes: TACI-9 truncated at the C-terminus by 3 amino acids NKL, fused directly to Fc; two identical polypeptides
EC50 [1]: 0.894 nM
IC50 [2]: 3.86 nM

B6: TACI-9 Fc (Fc fusion)
chain: SLSCRKEQGKFYDHLLRDCISCASICGQHPKQCAYFCENKLDKTHTCPPCPAPEAEGAPSVFLFPPKPKDTLMISRTPEVTCVVVDVSHEDPEVKFNWYVDGVEVHNAKTKPREEQYNSTYRVVSVLTVLHQDWLNGKEYKCKVSNKALPSSIEKTISKAKGQPREPQVYTLPPSRDELTKNQVSLTCLVKGFYPSDIAVEWESNGQPENNYKTTPPVLDSDGSFFLYSKLTVDKSRWQQGNVFSCSVMHEALHNHYTQKSLSLSPGK
notes: TACI positions 68-108, no mutation, fused directly to Fc; two identical polypeptides
EC50 [1]: 0.49 nM
EC50 [7]: 0.418 nM
IC50 [8]: 5.02 nM
IC50 [2]: 2.09 nM
Kd [9]: 0.018 nM
koff [9]: 0.000207 s⁻¹
kon [9]: 1.15e+07 M⁻¹ s⁻¹
Kd [10]: 0.0748 nM
koff [10]: 1.62e-05 s⁻¹
kon [10]: 217000 M⁻¹ s⁻¹

Further lines, results first:

IC50 (nM) for the inhibition of the BAFF-induced B cell proliferation [3]: 0.0481 nM
IC50 (nM) for the inhibition of the APRIL-induced B cell proliferation [4]: 0.14 nM
IC50 [5]: 1.87 nM
EC50 [6]: 8.48 nM
B2: TACI-9-15Fc6 fusion protein (Fc fusion)
chain: STSCREEQGEFYDHLLRDCISCASICGQHPKQCAAFCEEPKSSDKTHTCPPCPAPEAEGAPSVFLFPPKPKDTLMISRTPEVTCVVVDVSHEDPEVKFNWYVDGVEVHNAKTKPREEQYNSTYRVVSVLTVLHQDWLNGKEYKCKVSNKALPSSIEKTISKAKGQPREPQVYTLPPSRDELTKNQVSLTCLVKGFYPSDIAVEWESNGQPENNYKTTPPVLDSDGSFFLYSKLTVDKSRWQQGNVFSCSVMHEALHNHYTQKSLSLSPGK
notes: Full-length chain

EC50 [1]: 3.66 nM
IC50 [2]: 30.1 nM
B3: TACI-13 Fc (Fc fusion)
chain: SLSCRKEQGKFYDHLLRDCISCASICGQHPKQCAYFCDKTHTCPPCPAPEAEGAPSVFLFPPKPKDTLMISRTPEVTCVVVDVSHEDPEVKFNWYVDGVEVHNAKTKPREEQYNSTYRVVSVLTVLHQDWLNGKEYKCKVSNKALPSSIEKTISKAKGQPREPQVYTLPPSRDELTKNQVSLTCLVKGFYPSDIAVEWESNGQPENNYKTTPPVLDSDGSFFLYSKLTVDKSRWQQGNVFSCSVMHEALHNHYTQKSLSLSPGK
notes: as for B1

IC50 [5]: 1.44 nM
EC50 [6]: 8.89 nM
B5: TACI-9-15Fc5 fusion protein (Fc fusion)
chain: B4 chain with L2T, K6E, K10E, Y35A
notes: Full-length chain
